The values below come from the supplement of paper PMC11246515.

± gives the standard deviation of the averaged measurements. Some results are limits rather than exact numbers.

The data set in a line: total protein half-life in vivo (active degradation + dilution); higher = more stable protein.
Where [1] appears, read: E. coli NCM3722 delta-clpP delta-lon delta-hslV, growth: N-lim chemostat, doubling time 6 h.
Where [2] appears, read: E. coli NCM3722 delta-clpP, growth: N-lim chemostat, doubling time 6 h.
Setting [3] is: E. coli NCM3722 delta-hslV, growth: N-lim chemostat, doubling time 6 h.
The mark [4] stands for this setting: E. coli NCM3722 delta-smpB, growth: N-lim chemostat, doubling time 6 h.
Setting [5] is: wild type E. coli NCM3722, growth: C-lim chemostat, doubling time 3 h.
The mark [6] stands for this setting: wild type E. coli NCM3722, growth: C-lim chemostat, doubling time 6 h.
Setting [7] is: wild type E. coli NCM3722, growth: C-lim chemostat, doubling time 12 h.
Setting [8] is: wild type E. coli NCM3722, growth: N-lim chemostat, doubling time 6 h.
[9] abbreviates: wild type E. coli NCM3722, growth: P-lim chemostat, doubling time 6 h.
The mark [10] stands for this setting: wild type E. coli NCM3722, growth: P-lim chemostat, doubling time 12 h.
The mark [11] stands for this setting: wild type E. coli NCM3722, growth: N-lim chemostat, doubling time 12 h.
The mark [12] stands for this setting: E. coli NCM3722 delta-lon, growth: N-lim chemostat, doubling time 6 h.

Regarding “MNKSGKYLVWTVLSVMGAFALGYIALNRGEQINALWIVVASVCIYLIAYRFYGLYIAKNVLAVDPTRMTPAVRHNDGLDYVPTDKKVLFGHHFAAIAGAGPLVGPVLAAQMGYLPGMIWLLAGVVLAGAVQDFMVLFVSTRRDGRSLGELVKEEMGPTAGVIALVACFMIMVIILAVLAMIVVKALTHSPWGTYTVAFTIPLALFMGIYLRYLRPGRIGEVSVIGLVFLIFAIISGGWVAESPTWAPYFDFTGVQLTWMLVGYGFVAAVLPVWLLLAPRDYLSTFLKIGTIVGLAVGILIMRPTLTMPALTKFVDGTGPVWTGNLFPFLFITIACGAVSGFHALISSGTTPKMLANEGQACFIGYGGMLMESFVAIMALVSACIIDPGVYFAMNSPMAVLAPAGTADVVASAAQVVSSWGFSITPDTLNQIASEVGEQSIISRAGGAPTLAVGMAYILHGALGGMMDVAFWYHFAILFEALFILTAVDAGTRAARFMLQDLLGVVSPGLKRTDSLPANLLATALCVLAWGYFLHQGVVDPLGGINTLWPLFGIANQMLAGMALMLCAVVLFKMKRQRYAWVALVPTAWLLICTLTAGWQKAFSPDAKVGFLAIANKFQAMIDSGNIPSQYTESQLAQLVFNNRLDAGLTIFFMVVVVVLALFSIKTALAALKDPKPTAKETPYEPMPENVEEIVAQAKGAH”, the “total protein half-life in vivo” value stood at 5.72 h under setting [1]; 4.33 h under setting [2]; 4.49 ± 0.2 h under setting [3]; 4.96 ± 1.1 h under setting [4]; 3.36 ± 0.37 h under setting [5]; 5.34 ± 0.24 h under setting [6]. The “total protein half-life in vivo” value turned out to be 11.7 ± 0.39 h under setting [7], 5.33 ± 0.76 h under setting [8], 5.517 ± 0.042 h under setting [9] and 10.3 ± 0.19 h under setting [10].
In the case of “MAEETIFSKIIRREIPSDIVYQDDLVTAFRDISPQAPTHILIIPNILIPTVNDVSAEHEQALGRMITVAAKIAEQEGIAEDGYRLIMNTNRHGGQEVYHIHMHLLGGRPLGPMLAHKGL [P0ACE7]”, the “total protein half-life in vivo” value is, setting by setting: under setting [2], 5.01 ± 0.59 h; under setting [3], 4.88 ± 0.38 h; under setting [4], 4.71 ± 0.36 h; under setting [5], 3.32 ± 0.21 h; under setting [6], 5.24 ± 0.32 h; under setting [7], 8.75 ± 1.9 h. The “total protein half-life in vivo” value is, setting by setting: under setting [8], 4.31 ± 0.051 h; under setting [11], 7.64 ± 0.66 h; under setting [9], 5.65 ± 0.32 h; under setting [10], 12 ± 1.3 h.
For “MRQKETTATTRFSLLPGSITRFFLLLIIVLLVTMGVMVQSAVNAWLKDKSYQIVDITHAIQKRVDNWRYVTWQIYDNIAATTSPSSGEGLQETRLKQDVYYLEKPRRKTEALIFGSHDNSTLEMTQRMSTYLDTLWGAENVPWSMYYLNGQDNSLVLISTLPLKDLTSGFKESTVSDIVDSRRAEMLQQANALDERESFSNMRRLAWQNGHYFTLRTTFNQPGHLATVVAFDLPINDLIPPGMPLDSFRLEPDATATGNNDNEKEGTDSVSIHFNSTKIEISSALNSTDMRLVWQVPYGTLLLDTLQNILLPLLLNIGLLALALFGYTTFRHFSSRSTENVPSTAVNNELRILRAINEEIVSLLPLGLLVHDQESNRTVISNKIADHLLPHLNLQNITTMAEQHQGIIQATINNELYEIRMFRSQVAPRTQIFIIRDQDREVLVNKKLKQAQRLYEKNQQGRMIFMKNIGDALKEPAQSLAESAAKLNAPESKQLANQADVLVRLVDEIQLANMLADDSWKSETVLFSVQDLIDEVVPSVLPAIKRKGLQLLINNHLKAHDMRRGDRDALRRILLLLMQYAVTSTQLGKITLEVDQDESSEDRLTFRILDTGEGVSIHEMDNLHFPFINQTQNDRYGKADPLAFWLSDQLARKLGGHLNIKTRDGLGTRYSVHIKMLAADPEVEEEEERLLDDVCVMVDVTSAEIRNIVTRQLENWGATCITPDERLISQDYDIFLTDNPSNLTASGLLLSDDESGVREIGPGQLCVNFNMSNAMQEAVLQLIEVQLAQEEVTESPLGGDENAQLHASGYYALFVDTVPDDVKRLYTEAATSDFAALAQTAHRLKGVFAMLNLVPGKQLCETLEHLIREKDVPGIEKYISDIDSYVKSLL”, the “total protein half-life in vivo” value is, setting by setting: under setting [1], 6.226 ± 0.058 h; under setting [3], 6.72 ± 0.27 h; under setting [12], 6.86 ± 0.49 h; under setting [4], 6.32 ± 0.7 h; under setting [5], 3.25 ± 0.077 h; under setting [6], 6.3 ± 0.57 h. For the same sequence, the “total protein half-life in vivo” value is, setting by setting: under setting [7], 11.13 ± 0.09 h; under setting [8], 6.21 ± 0.15 h; under setting [11], 12.6 ± 0.92 h; under setting [9], 7 ± 0.88 h; under setting [10], 12.9 ± 0.27 h.
For the sequence “MLRHNVPVRRDLDQIAADNGFDFHIIDNEIYWDESRAYRFTLRQIEEQIEKPTAELHQMCLEVVDRAVKDEEILTQLAIPPLYWDVIAESWRARDPSLYGRMDFAWCGNAPVKLLEYNADTPTSLYESAYFQWLWLEDARRSGIIPRDADQYNAIQERLISRFSELYSREPFYFCCCQDTDEDRSTVLYLQDCAQQAGQESRFIYIEDLGLGVGGVLTDLDDNVIQRAFKLYPLEWMMRDDNGPLLRKRREQWVEPLWKSILSNKGLMPLLWRFFPGHPNLLASWFDGEKPQIAAGESYVRKPIYSREGGNVTIFDGKNNVVDHADGDYADEPMIYQAFQPLPRFGDSYTLIGSWIVDDEACGMGIREDNTLITKDTSRFVPHYIAG”, the “total protein half-life in vivo” value runs as follows: under setting [1], more than 8 h; under setting [2], more than 8 h; under setting [3], more than 8 h; under setting [12], more than 8 h; under setting [7], 8.91 h; under setting [8], more than 8 h. For the same sequence, the “total protein half-life in vivo” value reads like this: under setting [11], more than 16 h; under setting [9], more than 8 h; under setting [10], more than 16 h.
